The values below come from paper PMC5637921, “An engineered photoswitchable mammalian pyruvate kinase” (The Febs Journal, 2017).

This data set deals with the molecule itself. Kind of data set: SEC; preparative SEC after Ni affinity; HiLoad 16/600 Superdex 200 pg, 0.5 mL/min, 50 mM Tris/HCl pH 7.5, 10 mM MgCl2, 200 mM NaCl, 150 mM KCl, 5% glycerol, 0.5 mM TCEP.

B1: mPKM2 internal LOV2 fusion at position D24 (PiL[D24]) (enzyme)
chain: not shown
notes: mouse pyruvate kinase M2 isoform (mPKM2), residues 1-24, amplified from pLHCX-flag-mPKM2; N-terminal part up to Asp24; Avena sativa phototropin 1 (NPH1-1) LOV2 domain, residues 404-540, amplified from plasmid pDS257 (Mid2(SS/TM)-GFP-LOVpep); G528A and N538E of the template were backmutated to wild-type LOV2; numbers count on phototropin 1 (NPH1-1, GenBank AAC05083.1); mouse pyruvate kinase M2 …
On to B1, for which the “stoichiometry N” value stood at 4.
